Data published in article PMC2275616.
Where “and” joins values, the source holds several entries; their conditions need not be identical. Equal entries are not always repeated.

Target: phosphocellulose-purified tubulin (bovine (endogenous in bovine brain)) (UniProt Q6B856)
Assay: native gel or EMSA

stoichiometry N: 4 and 6 and 8
Substance: phosphocellulose-purified tubulin (from UniProt Q6B856 1-445) (complex)
